Assay results published in paper PMC8008353 (The Journal of Biological Chemistry, 2005).

Molecular target: the molecule itself
Experiment: AUC

B1: NF4 (N protein fragment, residues 285-422) (domain or fragment)
chain: GNFGDQDLIRQGTDYKHWPQIAQFAPSASAFFGMSRIGMEVTPSGTWLTYHGAIKLDDKDPQFKDNVILLNKHIDAYKTFPPTEPKKDKKKKTDEAQPLPQRQKKQPTVTLLPAADMDDFSRQLQNSMSGASADSTQA
Question: For B1, which “stoichiometry N” value is on record?
Answer: Its value is 2.

B2: NF2 (N protein fragment, residues 211-422) (domain or fragment)
chain: MASGGGETALALLLLDRLNQLESKVSGKGQQQQGQTVTKKSAAEASKKPRQKRTATKQYNVTQAFGRRGPEQTQGNFGDQDLIRQGTDYKHWPQIAQFAPSASAFFGMSRIGMEVTPSGTWLTYHGAIKLDDKDPQFKDNVILLNKHIDAYKTFPPTEPKKDKKKKTDEAQPLPQRQKKQPTVTLLPAADMDDFSRQLQNSMSGASADSTQA
Question: With B2 as the protein, how does the “stoichiometry N” value read?
Answer: The value was 2.
